Measured values: the nanobody polyreactivity screen of Harvey et al. (2022)

test: yeast display, Sf9 membrane polyspecificity reagent, FACS + sequencing; frameworks hold sequencing errors
Summary of the method: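 Galactose induction of a Saccharomyces cerevisiae BJ5465 synthetic nanobody display library ran 36–48 hours. The cells were then stained for 1 hour at 4 °C with 10% biotinylated, detergent-solubilized Sf9 membrane reagent, pulled down on streptavidin microbeads and FACS-sorted into low and high (top ~1%) gates on expression and reagent-binding fluorescence. Labels for polyreactivity follow the gate of origin.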

For “QVQLVESGGGLVQAGGSLRLSCAASGFTFRKYAMGWYRQAPGKERELVASITSGGSTYYADSVKGRFTISRDNAKNTVYLQMNSLKPEDTAVYYCNAVKATLASGRLRGAYYYWGQGTQVTVSS”, which “polyreactivity (PSR sort gate)” value is on record?
Its value is “high polyreactivity”.

Which “polyreactivity (PSR sort gate)” value does the source give for “QVQLVESGGALVHAGGSLRLSCAASGSIFYQYDMGWYRQAPLKERELVAAISRSGTRTYYEDSVKGRFTISRDNAKNTVYLKMNSLKPEDTAVYYCARRYRSGYGYWGQGTQVTVSS” here?
The value was “high polyreactivity”.

Which “polyreactivity (PSR sort gate)” value does the source give for “QVQLVESGGGLVQAGGSLRLSCAASGRTFYGYAMGWYRQAPGKEREFVAAITYSGGRTYYADSVKGRFTISRDNAKNTVYLQMNSLKPEETAVYYCNAYYYYVNQGRYEYGYWGQGTQVTVSS” here?
Its value is “high polyreactivity”.

Which “polyreactivity (PSR sort gate)” value does the source give for “QVQLVESGGGLVQAGGSLRLSCAASGSTLSSYAMGWYRPAPGTERELGAVISGGGRTYYADSVKGRFTISRDNAKNTVYLQMNSLKPEDTAVYYCAAVTFSLGYRYYYWGQGTQVTVSS” here?
Its value is “high polyreactivity”.

With “QVQLVESGGGLFQAGGSLRISCAASGRIFTKNTMGWYRQPPWKERELFAAIRSRAGSTYYADSVKGRFTISRDNAKNTVYLQMNSLKPEDTAFYYCAVPWFRSVDFDYWGQGTQVTVSS” as the sequence, how does the “polyreactivity (PSR sort gate)” value read?
Its value is “low polyreactivity”.

Which “polyreactivity (PSR sort gate)” value does the source give for “QDQHVESGGGLVQAGGSLRLSCAASGSTFHLYAMGWYRQAPGKERELVATITWRTGSTYYADSVKGRFTISRDNAKNTVYLQMNSLKPEDTAVYYCAAYPYRYSWLDYWGQGTQVTVSS” here?
The value was “high polyreactivity”.

For “QVQLVESGGGLVQAGGSLRLSCAASGSTFIENAMGWYRQAPGKERELVAAINRGGTTYYADSVKGRFTISRDNAKNTVYLQMNSLKPEDTAVYYCAADDPSYANRFIHDYWGQGTHVTVSS”, which “polyreactivity (PSR sort gate)” value is on record?
The value was “low polyreactivity”.

For “QVQLVESGGGIVQAGGSLRLSCAASGRTFFLYTLGWYRQAPGKEREFVAAINYSGGRTYYADSVKGRFTISRDKAKNTVYLQMNSLKPEDTAVYYCAAYRGSYSYDYWGQGTQVTVSS”, which “polyreactivity (PSR sort gate)” value is on record?
The value was “high polyreactivity”.

With “QVQLVESGGGLVQAGGSLRLSCAASGSTFQVNAMGWYRQAPGKERELVASISGGSSTNYADSVKGRFTISRDNAKNTVYLQMNSLKPEDTAVYYCAAYYLSGLRVAYDYWGQGTQVTVSS” as the sequence, how does the “polyreactivity (PSR sort gate)” value read?
The value was “low polyreactivity”.

Which “polyreactivity (PSR sort gate)” value does the source give for “QVQLVESGGVLVQAGVSLRLSCAASGRTFFRYTMGWYRQAPGKERELVAAISRSDGSTYYADSVKGRFTISRDNAKNTVYLQMNSLKPEDTAVYYCAKSLPSGYYYWGQGTQVTVSS” here?
Its value is “low polyreactivity”.

For “QVQLVESGGGLVQAGGSLRLSCAASGFTSRNYAMGWYSQARGKARELVAVFSKSGTSTYYADSVKGRFTISRDHAKNTVYLQMTSLKPEDTAVYYCSADTGHLSNSMDYWGQGTQVTVSS”, which “polyreactivity (PSR sort gate)” value is on record?
The value was “high polyreactivity”.

With “QVQLVESGGGLVQAGGSLRLSCAASGRTFYINAMGWYRQAPGKEREFVAAITDGGDRTYYADSVKGRFTISRDNEKNTVYLQMNSLKPEDTAVYYCAADRGVRYDYWGQGTQVTVSS” as the sequence, how does the “polyreactivity (PSR sort gate)” value read?
Its value is “low polyreactivity”.

With “QVQLVESGGGLDQAGGSLRLSCAASGFIFGVSVMGWYRPAPGKERELVAAMSGRGGSTFYADSVKGRFTISRDNAKNTVYLQMNSLKPEDTAVYYCAAKSTGPSMDYWGQGTQVTVSS” as the sequence, how does the “polyreactivity (PSR sort gate)” value read?
The value was “high polyreactivity”.

For “QVQIVESGGGLVQAGGSLRLSCAASGRTLYGYAMGWYRQAPGKEREMVASIRSGGSTNYADSVKGRFTISRDNAKNTVYLQMNCLKPEDTAVYYCADDPYYSYGYYHAHGRDVGYWGQGTQVTVSS”, which “polyreactivity (PSR sort gate)” value is on record?
The value was “low polyreactivity”.

With “QVQLVESGGGLVQAGGSLRLSSAASGSIFKYYAMGWYRQAPGKERELVATISSVGSTNYADSVKGRFTISRDNAKNTVYLKMNSLKPEATAVYYCNARIGSRSYAWISTRYDYWGQGTQVTVSS” as the sequence, how does the “polyreactivity (PSR sort gate)” value read?
The value was “high polyreactivity”.

With “QVQLVESGGGLVQAGGSLRLSCAASGFIFTVNAMGWYRQAPGKDRELVAAITSGGNTYYADSVKGRFTISRDNAKNTVYLQMNSLKPEDTAVYYCNAVFYTWSPYGTTVRSYGYWGQGTQVTVSS” as the sequence, how does the “polyreactivity (PSR sort gate)” value read?
Its value is “high polyreactivity”.

Which “polyreactivity (PSR sort gate)” value does the source give for “QVQLVESGGGLVQAGGSLRLSCAASGRIFNGYTMGWYRQAPGKETEFVATISRSGGSTYYADSVKGRFTISRDHAKNTVYLQMNSLKPEDSAVYYCAKTYPAKWEYDYWGQGTQVTVSS” here?
The value was “low polyreactivity”.
